Measured values reported in ChEMBL document CHEMBL1151784, “Antibiotic evaluation and in vivo analysis of alkynyl Coenzyme A antimetabolites in Escherichia coli” (2008).

How the values were obtained:
[1] = substrate: C=CCNC(=O)CCNC(=O)[C@H](O)C(C)(C)CO; experiment: (§1) Ratio of kcat to Km for Escherichia coli K12 CoaA
[2] = substrate: C#CCCCNC(=O)CCNC(=O)[C@H](O)C(C)(C)CO; experiment: as §1
[3] = substrate: C#CCCNC(=O)CCNC(=O)[C@H](O)C(C)(C)CO; experiment: as §1
[4] = substrate: C#CCNC(=O)CCNC(=O)[C@H](O)C(C)(C)CO; experiment: as §1
[5] = substrate: C=CC(=O)NCCNC(=O)CCNC(=O)[C@H](O)C(C)(C)CO; experiment: as §1
[6] = substrate: C#CC(=O)NCCNC(=O)CCNC(=O)[C@H](O)C(C)(C)CO; experiment: as §1
[7] = substrate: CC(C)(CO)[C@@H](O)C(=O)NCCC(=O)NCCN=[N+]=[N-]; experiment: as §1
[8] = substrate: CCC(=O)NCCNC(=O)CCNC(=O)[C@H](O)C(C)(C)CO; experiment: as §1
[9] = substrate: CCC(=O)OCCNC(=O)CCNC(=O)[C@H](O)C(C)(C)CO; experiment: as §1
[10] = substrate: C#CCCC(=O)NCCNC(=O)CCNC(=O)[C@H](O)C(C)(C)CO; experiment: as §1
[11] = substrate: CC(C)(CO)[C@@H](O)C(=O)NCCC(=O)O; experiment: as §1
[12] = substrate: CCCCCNC(=O)CCNC(=O)[C@H](O)C(C)(C)CO; experiment: as §1
[13] = substrate: C#CCCCCNC(=O)CCNC(=O)[C@H](O)C(C)(C)CO; experiment: as §1
[14] = substrate: C#CCNC(=O)[C@H](O)C(C)(C)CO; experiment: as §1
[15] = substrate: CCOC(=O)NCCNC(=O)CCNC(=O)[C@H](O)C(C)(C)CO; experiment: as §1
[16] = substrate: CCCNC(=O)CCNC(=O)[C@H](O)C(C)(C)CO; experiment: as §1
[17] = substrate: C=CCNC(=O)CCNC(=O)[C@H](O)C(C)(C)CO; experiment: (§2) Activity of Escherichia coli K12 CoaA
[18] = substrate: C#CCCCNC(=O)CCNC(=O)[C@H](O)C(C)(C)CO; experiment: as §2
[19] = substrate: C#CCCNC(=O)CCNC(=O)[C@H](O)C(C)(C)CO; experiment: as §2
[20] = substrate: C#CCNC(=O)CCNC(=O)[C@H](O)C(C)(C)CO; experiment: as §2
[21] = substrate: C=CC(=O)NCCNC(=O)CCNC(=O)[C@H](O)C(C)(C)CO; experiment: as §2
[22] = substrate: C#CC(=O)NCCNC(=O)CCNC(=O)[C@H](O)C(C)(C)CO; experiment: as §2
[23] = substrate: CC(C)(CO)[C@@H](O)C(=O)NCCC(=O)NCCN=[N+]=[N-]; experiment: as §2
[24] = substrate: CCC(=O)NCCNC(=O)CCNC(=O)[C@H](O)C(C)(C)CO; experiment: as §2
[25] = substrate: CCC(=O)OCCNC(=O)CCNC(=O)[C@H](O)C(C)(C)CO; experiment: as §2
[26] = substrate: C#CCCC(=O)NCCNC(=O)CCNC(=O)[C@H](O)C(C)(C)CO; experiment: as §2
[27] = substrate: CC(C)(CO)[C@@H](O)C(=O)NCCC(=O)O; experiment: as §2
[28] = substrate: CCCCCNC(=O)CCNC(=O)[C@H](O)C(C)(C)CO; experiment: as §2
[29] = substrate: C#CCCCCNC(=O)CCNC(=O)[C@H](O)C(C)(C)CO; experiment: as §2
[30] = substrate: C#CCNC(=O)[C@H](O)C(C)(C)CO; experiment: as §2
[31] = substrate: CCOC(=O)NCCNC(=O)CCNC(=O)[C@H](O)C(C)(C)CO; experiment: as §2
[32] = substrate: CCCNC(=O)CCNC(=O)[C@H](O)C(C)(C)CO; experiment: as §2

B1: Pantothenate kinase (Escherichia coli K-12), P0A6I3 (protein)
chain: MSIKEQTLMTPYLQFDRNQWAALRDSVPMTLSEDEIARLKGINEDLSLEEVAEIYLPLSRLLNFYISSNLRRQAVLEQFLGTNGQRIPYIISIAGSVAVGKSTTARVLQALLSRWPEHRRVELITTDGFLHPNQVLKERGLMKKKGFPESYDMHRLVKFVSDLKSGVPNVTAPVYSHLIYDVIPDGDKTVVQPDILILEGLNVLQSGMDYPHDPHHVFVSDFVDFSIYVDAPEDLLQTWYINRFLKFREGAFTDPDSYFHNYAKLTKEEAIKTAMTLWKEINWLNLKQNILPTRERASLILTKSANHAVEEVRLRK
B1 gave a kcat/Km [1] of 381 M⁻¹ s⁻¹, a kcat/Km [2] of 299 M⁻¹ s⁻¹ and a kcat/Km [3] of 396 M⁻¹ s⁻¹. The kcat/Km [4] was 356 M⁻¹ s⁻¹, the kcat/Km [5] was 183 M⁻¹ s⁻¹ and the kcat/Km [6] was 185 M⁻¹ s⁻¹. For the same protein, the kcat/Km [7] was 268 M⁻¹ s⁻¹, the kcat/Km [8] was 257 M⁻¹ s⁻¹ and the kcat/Km [9] was 392 M⁻¹ s⁻¹. For the same protein, the kcat/Km [10] was 195 M⁻¹ s⁻¹, the kcat/Km [11] was 352 M⁻¹ s⁻¹ and the kcat/Km [12] was 410 M⁻¹ s⁻¹. It also gave a kcat/Km [13] of 300 M⁻¹ s⁻¹, a kcat/Km [14] of 27 M⁻¹ s⁻¹ and a kcat/Km [15] of 305 M⁻¹ s⁻¹. It also gave a kcat/Km [16] of 411 M⁻¹ s⁻¹, a Km [17] of 41.2 µM and a Vmax [17] of 0.38 µM/s. For the same protein, the kcat [17] was 0.0157 s⁻¹, the Km [18] was 40.3 µM and the Vmax [18] was 0.29 µM/s. For the same protein, the kcat [18] was 0.012 s⁻¹, the Km [19] was 34 µM and the Vmax [19] was 0.33 µM/s. It also gave a kcat [19] of 0.0135 s⁻¹, a Km [20] of 36 µM and a Vmax [20] of 0.31 µM/s. It also gave a kcat [20] of 0.0128 s⁻¹, a Km [21] of 58 µM and a Vmax [21] of 0.26 µM/s. For the same protein, the kcat [21] was 0.0107 s⁻¹, the Km [22] was 48.5 µM and the Vmax [22] was 0.22 µM/s. The kcat [22] was 0.009 s⁻¹, the Km [23] was 43.5 µM and the Vmax [23] was 0.28 µM/s. For the same protein, the kcat [23] was 0.0115 s⁻¹, the Km [24] was 34.6 µM and the Vmax [24] was 0.22 µM/s. The kcat [24] was 0.00883 s⁻¹, the Km [25] was 27.8 µM and the Vmax [25] was 0.26 µM/s. The kcat [25] was 0.0108 s⁻¹, the Km [26] was 47.8 µM and the Vmax [26] was 0.23 µM/s. For the same protein, the kcat [26] was 0.00933 s⁻¹, the Km [27] was 35.8 µM and the Vmax [27] was 0.31 µM/s. The kcat [27] was 0.0127 s⁻¹, the Km [28] was 34 µM and the Vmax [28] was 0.34 µM/s. It also gave a kcat [28] of 0.014 s⁻¹, a Km [29] of 40 µM and a Vmax [29] of 0.29 µM/s. The kcat [29] was 0.012 s⁻¹, the Km [30] was 396 µM and the Vmax [30] was 0.26 µM/s. For the same protein, the kcat [30] was 0.0107 s⁻¹, the Km [31] was 33.7 µM and the Vmax [31] was 0.25 µM/s. It also gave a kcat [31] of 0.0103 s⁻¹, a Km [32] of 36.9 µM and a Vmax [32] of 0.37 µM/s. The kcat [32] was 0.0152 s⁻¹.
